Assay results as given in US20130261013A1.
Primed or numbered codes have the meaning given here. Side chains are listed from the residue outwards. Ends that are not written are not given here. * marks the point of attachment. dT′ = N3-(decanoic acid)-2'-deoxythymidine (dT probe 19), Cc1cn([C@H]2C[C@H](O)[C@@H](CO)O2)c(=O)n(CCCCCCCCCC(=O)*)c1=O; coumarin = 7-methoxycoumarin-3-carboxylic acid, COc1ccc2cc(C(=O)*)c(=O)oc2c1; 25OHVD3 = 25-hydroxyvitamin D3, linked at its carbon 11; Dansyl = CN(C)c1cccc2c(S(=O)(=O)*)cccc12; 8C = 8-carbon spacer; Ahx = NCCCCCC(=O)O; VD3 = vitamin D3

T1: vitamin D binding protein
T1 sequence (P02774 17-474, species assumed, looked up): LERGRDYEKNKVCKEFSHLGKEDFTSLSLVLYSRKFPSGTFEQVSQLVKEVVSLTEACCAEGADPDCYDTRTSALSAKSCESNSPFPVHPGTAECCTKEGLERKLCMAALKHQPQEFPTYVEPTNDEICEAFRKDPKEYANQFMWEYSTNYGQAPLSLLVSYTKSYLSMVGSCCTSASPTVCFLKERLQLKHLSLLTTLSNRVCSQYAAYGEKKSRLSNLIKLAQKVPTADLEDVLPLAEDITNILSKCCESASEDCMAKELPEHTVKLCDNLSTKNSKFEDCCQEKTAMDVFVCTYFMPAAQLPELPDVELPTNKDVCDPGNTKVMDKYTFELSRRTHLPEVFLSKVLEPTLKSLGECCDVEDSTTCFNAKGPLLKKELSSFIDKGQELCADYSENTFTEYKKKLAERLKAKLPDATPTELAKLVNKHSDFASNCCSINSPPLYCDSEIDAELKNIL

B1: 4-C15L8-8C-25OHVD3 (dansyl) (designed binder)
chain: Ac-NAADLEAK([8C-25OHVD3])IRHLREK(Dansyl)LAARGPRDAAQLAEQLARRFERFARAG
modifications: not fully specified (C-terminus)
B2: 3-C15L8-8C-25OHVD3 (dansyl) (designed binder)
chain: Ac-NAADLEAK([8C-25OHVD3])IRHLAEK(Dansyl)LAARGPVDAAQLAEQLARRFEAFARAG
B3: 4-C25L22-6C-25OHVD3 (dansyl) (designed binder)
chain: NAADLEARIRHLRERLAARGPK([Ahx-25OHVD3])DAK(Dansyl)QLAEQLARAFERFARAG
modifications: not fully specified (N-terminus, C-terminus)
B4: 3-C10L17-8C-25OHVD3 (dansyl) (designed binder)
chain: Ac-NAADLEARIK(Dansyl)HLAERLK([8C-25OHVD3])ARGPVDAAQLAEQLARAFEAFARAG
B5: 4-C37L34-6C-VD3 (dansyl) (designed binder)
chain: NAADLEARIRHLRERLAARGPRDAAQLAEQLARK([Ahx-VD3])FEK(Dansyl)FARAG
modifications: not fully specified (N-terminus, C-terminus)
B6: 1-C15L8-8C-25OHVD3 (dansyl) (designed binder)
chain: Ac-NEADLEAK([8C-25OHVD3])IRHLAEK(Dansyl)LEARGPEDAEQLAEQLARAFEAFARAG
B7: 4-C15L8-6C-VD3 (dansyl) (designed binder)
chain: Ac-NAADLEAKIRHLREK(Dansyl)LAARGPRDAAQLAEQLARRFERFARAG
modifications: not fully specified (residue 8)
B8: 4-C37L34-6C-25OHVD3 (dansyl) (designed binder)
chain: NAADLEARIRHLRERLAARGPRDAAQLAEQLARK([Ahx-25OHVD3])FEK(Dansyl)FARAG
modifications: not fully specified (N-terminus, C-terminus)
B9: 4-C15L8-6C-25OHVD3 (coumarin) (designed binder)
chain: Ac-NAADLEAK([Ahx-25OHVD3])IRHLREK(coumarin)LAARGPRDAAQLAEQLARRFERFARAG
B10: 4-C10L17-6C-VD3 (dansyl) (designed binder)
chain: Ac-NAADLEARIK(Dansyl)HLRERLKARGPRDAAQLAEQLARAFERFARAG
modifications: not fully specified (residue 17)
B11: 2-C15L8-8C-25OHVD3 (dansyl) (designed binder)
chain: Ac-NEADLEAK([8C-25OHVD3])IRHLAEK(Dansyl)LAARGPVDAAQLAEQLARAFEAFARAG
B12: 4-C25L22-6C-VD3 (dansyl) (designed binder)
chain: NAADLEARIRHLRERLAARGPK([Ahx-VD3])DAK(Dansyl)QLAEQLARAFERFARAG
modifications: not fully specified (N-terminus, C-terminus)
B13: 3-C15L8-6C-25OHVD3 (dansyl) (designed binder)
chain: Ac-NAADLEAK([Ahx-25OHVD3])IRHLAEK(Dansyl)LAARGPVDAAQLAEQLARRFEAFARAG
B14: 3-C15L8-dT (designed binder)
chain: Ac-NAADLEAK(dT′)IRHLAEK(Dansyl)LAARGPVDAAQLAEQLARRFEAFARAG
B15: 4-C10L17-dT (designed binder)
chain: Ac-NAADLEARIK(Dansyl)HLRERLK(dT′)ARGPRDAAQLAEQLARAFERFARAG
B16: 3-C25L22-dT (designed binder)
chain: Ac-NAADLEAAIRHLAERLAARGPK(dT′)DAK(Dansyl)QLAEQLARAFEAFARAG
B17: 2-C10L17-dT (designed binder)
chain: Ac-NAADLEAAIK(Dansyl)HLAEALK(dT′)ARGPVDAAQLAEQLARAFEAFARAG

molecular target: T1, vitamin D binding protein; experiment: SPR (Biacore 2000), DBP immobilized on CM5, 1:1 model

| Kd [nM] | Binder |
| --- | --- |
| 110 | B1 |
| 1100 | B2 |
| 750 | B3 |
| 1200 | B4 |
| 900 | B5 |
| 290 | B6 |
| 1800 | B7 |
| 190 | B8 |
| 50 | B9 |
| 890 | B10 |
| 480 | B11 |
| 1300 | B12 |
| 1300 | B13 |

molecular target: thymidine kinase; experiment: fluorescence screen, 2 µM binder, 2 and 4 µM TK; estimate for 'hits'

| Kd [nM] | Binder |
| --- | --- |
| < 20 | B14 |
| < 20 | B15 |
| < 20 | B16 |
| < 20 | B17 |
